Target: T1, recombinant human fractalkine (CX3CL1; R&D systems) (human, UniProt P78423 25-100)
T1 sequence (looked up): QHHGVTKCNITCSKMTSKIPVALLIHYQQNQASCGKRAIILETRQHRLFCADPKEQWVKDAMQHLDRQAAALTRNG
Assay: ELISA on recombinant human fractalkine

Binder | binding result
antibody 816 (clone 816) (antibody, human IgG1, kappa, V domains shown) VH: EVQLLESGGGLVQPGGSLRLSCVASGFTFSTYAMTWVRQAPGKGLEWVSVIRASGDSEIYADSVRGRFTISRDNSKNTVFLQMDSLRVEDTAVYFCANIGQRRYCSGDHCYGHFDYWGQGTLVTVSS VL: DIVMTQSPLSLPVTPGEPASISCRSSQSLLHSDGRYYVDWYLQKPGQSPHLLIYLASNRASGVPDRFTGSGSGTDFTLKISRVEAEDVGVYYCMQGLHTPWTFGQGTKVDIKR | no binding
antibody 841 (clone 841) (antibody, human IgG1, kappa, V domains shown) VH: QVQLVQSGAEVKKPGASVKVSCKASGYTFISFGISWVRQAPGQGLEWMGWISAYNGNTDYAQRLQDRVTMTRDTATSTAYLELRSLKSDDTAVYYCTRDESMLRGVTEGFGPIDYWGQGTLVTVSS VL: not shown | no binding
antibody 835 (clone 835) (antibody, human IgG1, kappa, V domains shown) VH: QVQLVQSGAEVKRPGASVKVSCKASGYTFISYGFSWVRQAPGQGLEWMGWSSVYNGDTNYAQKFHGRVNMTTDTSTNTAYMELRGLRSDDTAVYFCARDRNVVLLPAAPFGGMDVWGQGTMVTVSS VL: DIQLTQSPSFLSASLEDRVTITCRASQGISSYLAWYQQKPGKAPKLLLDAASTLQSGVPSRFSGSGSGTEFTLTISSLQPEDFATYYCQQLNSYPRTFGQGTKVDIKR | no binding

Target: RSV protein F (recombinant or purified F protein) (human respiratory syncytial virus, …)
Assay: SPR Biacore 3000, Fab over amine-coupled recombinant protein F

Binder | Kd [nM] | koff [s⁻¹] | kon [M⁻¹ s⁻¹] | t1/2 [h]
Fab fragment of antibody 810 (Fab, V domains shown, also called Fab clone 810) VH: QVQLVQSGAEVKKSGSSVKVSCRASGGTFGNYAINWVRQAPGQGLEWVGRIIPVFDTTNYAQKFQGRVTITADRSTNTAIMQLSSLRPQDTAMYYCLRGSTRGWDTDGFDIWGQGTMVTVSS VL: NIQMTQSPSAMSASVGDRVTITCRASQGISNYLVWFQQKPGKVPKRLIYAASSLQSGVPSRFSGSGSGTEFTLTISSLQPEDFATYYCLQHNISPYTFGQGTKLETKR | 0.2 | 0.000348 | 1.74e+06 | 0.55
Fab fragment of antibody 818 (Fab, V domains shown) VH: QVTLRESGPAVVKPTETLTLTCAFSGFSLNAGRVGVSWIRQPPGQAPEWLARIDWDDDKAFRTSLKTRLSISKDSSKNQVVLTLSNMDPADTATYYCARTQVFASGGYYLYYLDHWGQGTLVTVSS VL: DIQMTQSPSSLSASVGDRVTITCRASQTIASYVNWYQQKPGRAPSLLIYAASNLQSGVPPRFSGSGSGTDFTLTISGLQPDDFATYYCQQSYSYRALTFGGGTKVEIKR | 0.115 | 2.2e-05 | 192000 | 8.83
Fab fragment of antibody 825 (Fab, V domains shown) VH: QVQLVQSGAEVKKPGASVKVSCKVSGYTFTSNGLSWVRQAPGQGFEWLGWISASSGNKKYAPKFQGRVTLTTDISTSTAYMELRSLRSDDTAVYYCAKDGGTYVPYSDAFDFWGQGTMVTVSS VL: not shown | 0.195 | 0.00015 | 772000 | 1.28
Fab fragment of antibody 817 (Fab, V domains shown, also called Fab clone 817) VH: QVQLVESGGGVVQPGRSLRLSCAASGFGFNTHGMHWVRQAPGKGLEWLSIISLDGIKTHYADSVKGRFTISRDNSKNTVFLQLSGLRPEDTAVYYCAKDHIGGTNAYFEWTVPFDGWGQGTLVTVSS VL: EIVMTQSPATLSASPGERATLSCWASQTIGGNLAWYQQKPGQAPRLLIYGASTRATGVPARFSGSGSGTEFTLAISSLQSEDFAVYYCQQYKNWYTFGQGTKLELKR | 0.82 | 7.54e-05 | 92000 | 2.5
Fab fragment of antibody 831 (Fab, V domains shown, also called Fab clone 831) VH: QVQLVQSGAEVKKPGASVKVSCKASANIFTYAMHWVRQAPGQRLEWMGWINVGNGQTKYSQRFQGRVTITRDTSATTAYMELSTLRSEDTAVYYCARRASQYGEVYGNYFDYWGQGTLVTVSS VL: DIQMTQSPSTLSASVGDRLTITCRASQNIYNWLAWYQQKPGKAPKLLIYDASTLESGVPSRFSGSGSGTEFTLTISSLQPDDFATYYCQQYNSLSPTFGQGTKVEIKR | 1.13 | 0.00042 | 372000 | 0.467
Fab fragment of antibody 858 (Fab, V domains shown, also called Fab clone 858) VH: QVQLVQSGAEVKKPGSSVKVSCKASGGSFDGYTISWLRQAPGQGLEWMGRVVPTLGFPNYAQKFQGRVTVTADRSTNTAYLELSRLTSEDTAVYYCARMNLGSHSGRPGFDMWGQGTLVTVSS VL: DIQMTQSPSSVSASVGDRVTITCQASQDISNYLNWYQQKPGKAPKLLIFDATKLETGVPTRFIGSGSGTDFTVTITSLQPEDVATYYCQHFANLPYTFGQGTKLEIKR | 0.007 | 3.4e-06 | 497000 | 56.7
Fab fragment of antibody 819 (Fab, V domains shown) VH: QVQLQESGPGLVKPSQTLSLTCTVSSGAISGADYYWSWIRQPPGKGLEWVGFIYDSGSTYYNPSLRSRVTISIDTSKKQFSLKLTSVTAADTAVYYCARDLGYGGNSYSHSYYYGLDVWGRGTTVTVSS VL: EIVLTQSPATLSLSPGERATLSCRASQSVSSSLAWYQQTPGQAPRLLIYDASYRVTGIPARFSGSGSGIDFTLTISSLEPEDFAVYYCQQRSNWPPGLTFGGGTKVEIKR | 0.14 | 4.99e-05 | 356000 | 3.83
Fab fragment of antibody 735 (Fab, V domains shown, also called Fab clone 735) VH: QVQLQESGPGLVKPSETLSLTCTVSNGAIGDYDWSWIRQSPGKGLEWIGNINYRGNTNYNPSLKSRVTMSLRTSTMQFSLKLSSATAADTAVYYCARDVGYGGGQYFAMDVWSPGTTVTVSS VL: EIVLTQSPATLSLSPGERATLSCRASQSVNSHLAWYQQKPGQAPRLLIYNTFNRVTGIPARFSGSGSGTDFTLTISSLATEDFGVYYCQQRSNWPPALTFGGGTKVEIKR | 0.226 | 9.18e-05 | 407000 | 2.17

Target: T2, recombinant RSV protein G, G(B): residues 66-292 of strain 18537 (human respiratory syncytial virus …, UniProt P20896 66-292)
T2 construct: also called soluble recombinant G protein; recombinant protein G
T2 sequence: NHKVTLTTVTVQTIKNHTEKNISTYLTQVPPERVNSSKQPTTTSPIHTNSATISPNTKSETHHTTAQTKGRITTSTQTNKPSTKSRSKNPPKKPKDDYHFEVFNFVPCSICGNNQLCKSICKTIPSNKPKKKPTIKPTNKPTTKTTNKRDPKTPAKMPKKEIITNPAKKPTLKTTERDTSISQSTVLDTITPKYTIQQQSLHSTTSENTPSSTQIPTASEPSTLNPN
Assay: SPR Biacore 3000, Fab over amine-coupled recombinant protein G

Binder | Kd [nM] | koff [s⁻¹] | kon [M⁻¹ s⁻¹] | t1/2 [h]
Fab fragment of antibody 811 (Fab, also called Fab clone 811) VH: QVQLVQSGAVVETPGASVKVSCKASGYIFGNYYIHWVRQAPGQGLEWMAVINPNGGSTTSAQKFQDRITVTRDTSTTTVYLEVDNLRSEDTATYYCARQRSVTGGFDAWLLIPDASNTWGQGTMVTVSS light: not shown | 0.34 | 0.000171 | 498000 | 1.13
Fab fragment of antibody 838 (Fab, also called Fab clone 838) VH: QVQLVESGGGVVQPGTSLRLSCAASGFTFSTFGMHWVRQAPGKGLEWVAVISYDGNKKYYADSVKGRFTISRDNSKNTLYLQVNSLRVEDTAVYYCAAQTPYFNESSGLVPDWGQGTLVTVSS light: DIQMTQSPSSLSASVGDRVSITCRASQGISNYLAWYQQKPGKVPKLLIYAASTLQSGVPSRFSGSGSGTDFTLTISSLQPEDVATYYCQKYNSAPQTFGQGTKVEIKRTVAAPSVFIFPPSDEQLKSGTASVVCLLNNFYPREAKVQWKVDNALQSGNSQESVTEQDSKDSTYSLSSTLTLSKADYEKHKVYACEVTHQGLSSPVTKSFNRGEC | 0.19 | 5.06e-05 | 264000 | 3.83
Fab fragment of antibody 859 (Fab, also called Fab clone 859) VH: QVQLVESGGGVVQPGRSLRLSCAVSGSSFSKYGIHWVRQAPGKGLEWVAVISYDGSKKYFTDSVKGRFTIARDNSQNTVFLQMNSLRAEDTAVYYCATGGGVNVTSWSDVEHSSSLGYWGLGTLVTVSS light: DIQMTQSPSSLSASVGDRVTITCRASQGIRNYLAWYQQKPGKVPKLLVFAASTLQSGVPSRFSGSGSGTDFTLTISSLQPEDVATYYCQRYNSAPLTFGGGTKVEIKRTVAAPSVFIFPPSDEQLKSGTASVVCLLNNFYPREAKVQWKVDNALQSGNSQESVTEQDSKDSTYSLSSTLTLSKADYEKHKVYACEVTHQGLSSPVTKSFNRGEC | 0.12 | 4.63e-05 | 380000 | 4.17
Fab fragment of antibody 816 (Fab) VH: EVQLLESGGGLVQPGGSLRLSCVASGFTFSTYAMTWVRQAPGKGLEWVSVIRASGDSEIYADSVRGRFTISRDNSKNTVFLQMDSLRVEDTAVYFCANIGQRRYCSGDHCYGHFDYWGQGTLVTVSS light: DIVMTQSPLSLPVTPGEPASISCRSSQSLLHSDGRYYVDWYLQKPGQSPHLLIYLASNRASGVPDRFTGSGSGTDFTLKISRVEAEDVGVYYCMQGLHTPWTFGQGTKVDIKRTVAAPSVFIFPPSDEQLKSGTASVVCLLNNFYPREAKVQWKVDNALQSGNSQESVTEQDSKDSTYSLSSTLTLSKADYEKHKVYACEVTHQGLSSPVTKSFNRGEC | 0.09 | 0.000178 | 2.02e+06 | 1.08
Fab fragment of antibody 796 (Fab, also called Fab clone 796) VH: QVQLVESGGGVVQPGRSLRLSCAASGFSFSHFGMHWVRQVPGKGLEWVAIISYDGNNVHYADSVKGRFTISRDNSKNTLFLQMNSLRDDDTGVYYCAKDDVATDLAAYYYFDVWGRGTLVTVSS light: DIVMTQTPLSLSVTPGQPASISCRSSQSLLRSDGKTFLYWYLQKPGQSPQPLMYEVSSRFSGVPDRFSGSGSGADFTLNISRVETEDVGIYYCMQGLKIRRTFGPGTKVEIKRTVAAPSVFIFPPSDEQLKSGTASVVCLLNNFYPREAKVQWKVDNALQSGNSQESVTEQDSKDSTYSLSSTLTLSKADYEKHKVYACEVTHQGLSSPVTKSFNRGEC | 0.48 | 0.000403 | 833000 | 0.478
Fab fragment of antibody 853 (Fab, also called Fab clone 853) VH: EVQLVQSGAEVKKPGQSLKISCKTSGYIFTNYWIGWVRQRPGKGLEWMGVIFPADSDARYSPSFQGQVTISADKSIGTAYLQWSSLKASDTAIYYCARPKYYFDSSGQFSEMYYFDFWGQGTLVTVSS light: EIVLTQSPGTLSLSPGERATLSCRASQSVSSNYLAWYQQKPGQAPRLLIYGASSRAAGMPDRFSGSGSGTDFTLTISRLEPEDFAVYYCQQYGNSPLTFGGGTEVEIKRTVAAPSVFIFPPSDEQLKSGTASVVCLLNNFYPREAKVQWKVDNALQSGNSQESVTEQDSKDSTYSLSSTLTLSKADYEKHKVYACEVTHQGLSSPVTKSFNRGEC | 0.79 | 0.0014 | 1.77e+06 | 0.138
